± gives the standard deviation of the averaged measurements.
tested on: Saccharomyces cerevisiae; assay: protein stability index of tFT-peptide fusion (C-terminal peptide) (PSI (0-1 scale)); higher = more stable (slower turnover); settings: genetic background: wild type; temperature: 30 C
Experimental: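 Multiplexed protein stability (MPS) profiling in S. cerevisiae. Random 12-aa peptides (tFT-X12 library) are fused to the C-terminus of a sfGFP-mCherry tandem fluorescent timer, after mCherry and a GGGS linker. Cells are FACS-sorted into 8 mCherry/sfGFP bins and deep-sequenced. The protein stability index (PSI) is the read-weighted bin average, scaled from 0 (unstable) to 1 (stable). Only peptides with >10 reads are reported; cells were grown at 30 °C in SC-His with glucose.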
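Also: PSI is a weighted mean of sequencing reads over stability bins, variants kept only with over 10 reads, mCherry proximal and sfGFP distal, peptide attached via GGGS linker.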

Sequence | protein stability index
SVCLRASSCFRS | 0.648 ± 0.051
TKKKTTNKIIKI | 0.671 ± 0.054
SFAHIVSLPVSM | 0.657 ± 0.037
PSPTPTMPPPPP | 0.71 ± 0.01
TLLLLLPPLPSF | 0.598 ± 0.023
KKKKKQKEKKQK | 0.72 ± 0.0083
SSRPLYLFSALR | 0.689 ± 0.053
DREGIELHKNKD | 0.658 ± 0.0072
PRYVQPQCLAQR | 0.6721 ± 0.0051
WRPVSVVSPLSD | 0.677 ± 0.081
WFKALCPIFCKD | 0.62 ± 0.015
LSCSLSWFFSSV | 0.679 ± 0.083
RLPTRRSALMGL | 0.738 ± 0.043
GQCRFVEDVYVT | 0.685 ± 0.009
TSIAKRNGLLPG | 0.719 ± 0.13
DRKWSPGSGVVD | 0.696 ± 0.051
WGGVRSGGACCA | 0.72 ± 0.075
SGCCCGSDVYIG | 0.6905 ± 0.0055
VCRGFRHQCWYG | 0.665 ± 0.013
PPPLPPPPPAPS | 0.692 ± 0.0096
TFLFARLSFCKH | 0.613 ± 0.0071
LFALRLLSREGI | 0.604 ± 0.046
PRSTLLPRSSSC | 0.654 ± 0.028
KKKKNKKEEHVE | 0.715 ± 0.02
VGGGGERGRGGS | 0.687 ± 0.01

Sequence | protein stability index
AFFLHKTFRSSF | 0.732 ± 0.028
LFVGCRDPLCGV | 0.723 ± 0.00029
ALGGPPLSPSPH | 0.7299 ± 0.007
PCCYAGLHFFLG | 0.626 ± 0.068
FGQERLHMSILF | 0.692 ± 0.029
VHVMSPPPALPV | 0.659 ± 0.013
ACPPRPPFRSPS | 0.698 ± 0.026
CCGHGVFSFFSL | 0.749 ± 0.023
RSGREFLLSSLI | 0.718 ± 0.084
LDSMSRPGATVS | 0.668 ± 0.051
QPSDTSHPHQPS | 0.692 ± 0.028
NLYLEKLLHSEP | 0.715 ± 0.018
ERARSRGGGGCV | 0.632 ± 0.046
GKNRKKEEHAKR | 0.702 ± 0.12
FSSLHLTHELLS | 0.664 ± 0.061
VGVLSYYTCYEL | 0.689 ± 0.18
GKFVEVVRFWSV | 0.721 ± 0.074
SFSQTFSSLSSP | 0.702 ± 0.054
QSAPWPSPLSFS | 0.718 ± 0.019
QTKSLLTPLLNL | 0.65 ± 0.018
PPTPPCTSSPAR | 0.739 ± 0.084
EEKQLNKIKRKI | 0.662 ± 0.059
YSFFTLCLSLPA | 0.557 ± 0.025
AGQWGCAGGGEW | 0.703 ± 0.013
IKQEKPTKLPEP | 0.6435 ± 0.0052

Sequence | protein stability index
ELVYVFLGNLPP | 0.632 ± 0.034
LCVRFFGVKWAF | 0.594 ± 0.0095
PLSPFLRFLSSP | 0.605 ± 0.072
DRLGGVSQVNIQ | 0.751 ± 0.042
REEMASGGCIIR | 0.6845 ± 0.0039
KAGGGEGRDAWG | 0.667 ± 0.049
TSRTLKPGIPPA | 0.7033 ± 0.0013
CSRFPGSVRVVS | 0.615 ± 0.012
LRRSRQGGSGRR | 0.6 ± 0.044
LIVIGGGAVNGV | 0.63 ± 0.069
ARASPPARRSPT | 0.673 ± 0.058
CVGARLYMVRDR | 0.724 ± 0.046
LLGRSPSPTRPT | 0.65732 ± 0.00035
SVFSVVLSLSGS | 0.706 ± 0.051
WSSSPAFKPSRR | 0.655 ± 0.098
IKKLNTYIKRNV | 0.586 ± 0.025
IGGIIFICTSNK | 0.555 ± 0.015
DRSLRLGSLTSG | 0.6 ± 0.017
FAVSTVCWCCGL | 0.647 ± 0.041
QIKPSLGLDKPS | 0.683 ± 0.061
RGKRGRRGDEAG | 0.712 ± 0.093
LLSNTINRIWRN | 0.658 ± 0.018
HTYQAAFRSHAI | 0.6544 ± 0.00072
PHTHHLPPPNCP | 0.679 ± 0.04
LTAKDSRGLFRP | 0.706 ± 0.012

Sequence | protein stability index
GKLLPCVRGRGL | 0.665 ± 0.024
CNEKVNRNGYKR | 0.69 ± 0.064
MKSRQKPESGPR | 0.6899 ± 0.0056
SSGKRANINKNK | 0.695 ± 0.022
CITKERVMVKFV | 0.538 ± 0.012
ARGGIGTCSWGG | 0.727 ± 0.0095
FGVQTFIGPTIV | 0.677 ± 0.012
WGFGRCELMLGS | 0.708 ± 0.035
WCGGGGRGGVAG | 0.72 ± 0.047
CSFHPSSVSLYS | 0.555 ± 0.027
PFIPRFFSPCPL | 0.673 ± 0.018
RTGRTCADRPTP | 0.757 ± 0.043
YLVRENLFSRLV | 0.466 ± 0.07
VESRVVGGGGDW | 0.683 ± 0.047
TATPQRQPHKSP | 0.706 ± 0.013
PPPRPPALPPLP | 0.69 ± 0.016
FWPPPATSAAPC | 0.79 ± 0.011
IVSVSLYLYHFR | 0.548 ± 0.0059
LYSDLLTDDKNC | 0.666 ± 0.023
RYHLHFIGDVGF | 0.6974 ± 0.0042
IFSIRCFHSDFV | 0.6486 ± 0.0028
FMLGYIRPKWGG | 0.714 ± 0.12
VKSTRRHGRPQS | 0.723 ± 0.057
